# According to patent US20240366776A1 (Hoffmann-La Roche, published 2024):
# Biological target: PD-1-Fc (UniProt Q15116 25-167, limits assumed)
# Assay: cell-based or functional assay
# PD-1-Fc, sequence (Q15116 25-167 limits assumed): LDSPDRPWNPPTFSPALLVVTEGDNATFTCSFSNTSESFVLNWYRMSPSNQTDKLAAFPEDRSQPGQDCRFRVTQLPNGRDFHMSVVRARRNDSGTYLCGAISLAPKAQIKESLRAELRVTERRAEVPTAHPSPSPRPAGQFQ
"IL-2 activity EC50, HEK-Blue IL-2 reporter cells, IgG1 coated wells (control) [pM]","IL-2 activity EC50, HEK-Blue IL-2 reporter cells, PD-1 coated wells [pM]","IL-2 activity EC50, HEK-Blue IL-2 reporter cells, control wells [pM]",Binder
–,31,62,AF4403 (other) heavy 1: QVQLVESGGGVVQPGRSLRLDCKASGITFSNSGMHWVRQAPGKGLEWVAVIWYDGSKRYYADSVKGRFTISRDNSKNTLFLQMNSLRAEDTAVYYCATNDDYWGQGTLVTVSSAKTTAPSVYPLAPVCGDTTGSSVTLGCLVKGYFPEPVTLTWNSGSLSSGVHTFPAVLQSDLYTLSSSVTVTSSTWPSQSITCNVAHPASSTKVDKKIEPRGPTIKPCPPCKCPAPNAAGGPSVFIFPPKIKDVLMISLSPIVTCVVVDVSEDDPDVQISWFVNNVEVHTAQTQTHREDYNSTLRVVSALPIQHQDWMSGKEFKCKVNNKDLGAPIERTISKPKGSVRAPQVYVLPPPEEEMTKKQVTLTCMVTDFMPEDIYVEWTNNGKTELNYKNTEPVLDSDGSYFMYSDLRVEKKNWVERNSYSCSVVHEGLHNHHTTESFSRTPGGGGGSGGGGSGGGGSAPTSSSTKKTQLQLEHLLLDLQMILNGINNYKNPKLTDMLTFEFYMPKKATELKHLQCLERELKPLEEVLNLAQSKNFHLRPRDLISNINVIVLELKGSETTFMCEYADETATIVEFLNRWITFCQSIISTLT heavy 2: QVQLVESGGGVVQPGRSLRLDCKASGITFSNSGMHWVRQAPGKGLEWVAVIWYDGSKRYYADSVKGRFTISRDNSKNTLFLQMNSLRAEDTAVYYCATNDDYWGQGTLVTVSSAKTTAPSVYPLAPVCGDTTGSSVTLGCLVKGYFPEPVTLTWNSGSLSSGVHTFPAVLQSDLYTLSSSVTVTSSTWPSQSITCNVAHPASSTKVDKKIEPRGPTIKPCPPCKCPAPNAAGGPSVFIFPPKIKDVLMISLSPIVTCVVVDVSEDDPDVQISWFVNNVEVHTAQTQTHREDYNSTLRVVSALPIQHQDWMSGKEFKCKVNNKDLGAPIERTISKPKGSVRAPQVYVLPPPEKEMTKKQVSLTCLVKDFMPEDIYVEWTNNGKTELNYKNTEPVLKSDGSYFMYSKLTVEKKNWVERNSYSCSVVHEGLHNHHTTKSFSRTPGGGGGSGGGGSGGGGSGGGGSQVQLVQSGAEVKKPGASVKVSCKASGDTFTRYYVHWVRQAPGQGLEWMGIINPSGGYASYAQKFQGRVTMTRDTSTSTVYMELSSLRSEDTAVYYCAAGLFIWGQGTLVTVSSASGGGGSGGGGSGGGGSHASDIQMTQSPSSLSASVGDRVTITCRASQSIGRYLAWYQQKPGKAPKLLIYSASNLETGVPSRFSGSGSGTDFTLTISSLQPEDFATYYCQQYNSFPVTFGPGTKVDIKGGGSGGGSHHHHHH light: EIVLTQSPATLSLSPGERATLSCRASQSVSSYLAWYQQKPGQAPRLLIYDASNRATGIPARFSGSGSGTDFTLTISSLEPEDFAVYYCQQSSNWPRTFGQGTKVEIKRADAAPTVSIFPPSSEQLTSGGASVVCFLNNFYPKDINVKWKIDGSERQNGVLNSWTDQDSKDSTYSMSSTLTLTKDEYERHNSYTCEATHKTSTSPIVKSFNRNEC
–,26,64,AF4404 (other) heavy 1: QVQLVESGGGVVQPGRSLRLDCKASGITFSNSGMHWVRQAPGKGLEWVAVIWYDGSKRYYADSVKGRFTISRDNSKNTLFLQMNSLRAEDTAVYYCATNDDYWGQGTLVTVSSAKTTAPSVYPLAPVCGDTTGSSVTLGCLVKGYFPEPVTLTWNSGSLSSGVHTFPAVLQSDLYTLSSSVTVTSSTWPSQSITCNVAHPASSTKVDKKIEPRGPTIKPCPPCKCPAPNAAGGPSVFIFPPKIKDVLMISLSPIVTCVVVDVSEDDPDVQISWFVNNVEVHTAQTQTHREDYNSTLRVVSALPIQHQDWMSGKEFKCKVNNKDLGAPIERTISKPKGSVRAPQVYVLPPPEEEMTKKQVTLTCMVTDFMPEDIYVEWTNNGKTELNYKNTEPVLDSDGSYFMYSDLRVEKKNWVERNSYSCSVVHEGLHNHHTTESFSRTPGGGGGSGGGGSGGGGSAPTSSSTKKTQLQLEHLLLDLQMILNGINNYKNPKLTDMLTFEFYMPKKATELKHLQCLERELKPLEEVLNLAQSKNFHLRPRDLISNINVIVLELKGSETTFMCEYADETATIVEFLNRWITFCQSIISTLT heavy 2: QVQLVESGGGVVQPGRSLRLDCKASGITFSNSGMHWVRQAPGKGLEWVAVIWYDGSKRYYADSVKGRFTISRDNSKNTLFLQMNSLRAEDTAVYYCATNDDYWGQGTLVTVSSAKTTAPSVYPLAPVCGDTTGSSVTLGCLVKGYFPEPVTLTWNSGSLSSGVHTFPAVLQSDLYTLSSSVTVTSSTWPSQSITCNVAHPASSTKVDKKIEPRGPTIKPCPPCKCPAPNAAGGPSVFIFPPKIKDVLMISLSPIVTCVVVDVSEDDPDVQISWFVNNVEVHTAQTQTHREDYNSTLRVVSALPIQHQDWMSGKEFKCKVNNKDLGAPIERTISKPKGSVRAPQVYVLPPPEKEMTKKQVSLTCLVKDFMPEDIYVEWTNNGKTELNYKNTEPVLKSDGSYFMYSKLTVEKKNWVERNSYSCSVVHEGLHNHHTTKSFSRTPGGGGGSGGGGSGGGGSGGGGSQVQLVQSGAEVKKPGASVKVSCKASGYTFTDYYMHWVRQAPGQGLEWMGIINPRAGYTSYALKFQGRVTMTRDTSTSTVYMELSSLRSEDTAVYYCTSGWDVWGQGTLVTVSSASGGGGSGGGGSGGGGSHASDIQMTQSPSSLSASVGDRVTITCRASQSISTWLAWYQQKPGKAPKLLIYAASSLDSGVPSRFSGSGSGTDFTLTISSLQPEDFATYYCQQSYSFPVTFGQGTKVEIKGGGSGGGSHHHHHH light: EIVLTQSPATLSLSPGERATLSCRASQSVSSYLAWYQQKPGQAPRLLIYDASNRATGIPARFSGSGSGTDFTLTISSLEPEDFAVYYCQQSSNWPRTFGQGTKVEIKRADAAPTVSIFPPSSEQLTSGGASVVCFLNNFYPKDINVKWKIDGSERQNGVLNSWTDQDSKDSTYSMSSTLTLTKDEYERHNSYTCEATHKTSTSPIVKSFNRNEC

# Further lines, the binder ahead of its results:
Binder,"IL-2 activity EC50, HEK-Blue IL-2 reporter cells, IgG1 coated wells (control) [pM]","IL-2 activity EC50, HEK-Blue IL-2 reporter cells, PD-1 coated wells [pM]","IL-2 activity EC50, HEK-Blue IL-2 reporter cells, control wells [pM]"
AF4386 (other) heavy 1: APTSSSTKKTQLQLEHLLLDLQMILNGINNYKNPKLTDMLTFEFYMPKKATELKHLQCLERELKPLEEVLNLAQSKNFHLRPRDLISNINVIVLELKGSETTFMCEYADETATIVEFLNRWITFCQSIISTLTGGGGSGGGGSGGGGSGGGGSQVQLVQSGAEVKKPGASVKVSCKASGDTFTRYYVHWVRQAPGQGLEWMGIINPSGGYASYAQKFQGRVTMTRDTSTSTVYMELSSLRSEDTAVYYCAAGLFIWGQGTLVTVSSAKTTAPSVYPLAPVCGDTTGSSVTLGCLVKGYFPEPVTLTWNSGSLSSGVHTFPAVLQSDLYTLSSSVTVTSSTWPSQSITCNVAHPASSTKVDKKIEPRGPTIKPCPPCKCPAPNAAGGPSVFIFPPKIKDVLMISLSPIVTCVVVDVSEDDPDVQISWFVNNVEVHTAQTQTHREDYNSTLRVVSALPIQHQDWMSGKEFKCKVNNKDLGAPIERTISKPKGSVRAPQVYVLPPPEEEMTKKQVTLTCMVTDFMPEDIYVEWTNNGKTELNYKNTEPVLDSDGSYFMYSDLRVEKKNWVERNSYSCSVVHEGLHNHHTTESFSRTPGK heavy 2: QVQLVQSGAEVKKPGASVKVSCKASGDTFTRYYVHWVRQAPGQGLEWMGIINPSGGYASYAQKFQGRVTMTRDTSTSTVYMELSSLRSEDTAVYYCAAGLFIWGQGTLVTVSSAKTTAPSVYPLAPVCGDTTGSSVTLGCLVKGYFPEPVTLTWNSGSLSSGVHTFPAVLQSDLYTLSSSVTVTSSTWPSQSITCNVAHPASSTKVDKKIEPRGPTIKPCPPCKCPAPNAAGGPSVFIFPPKIKDVLMISLSPIVTCVVVDVSEDDPDVQISWFVNNVEVHTAQTQTHREDYNSTLRVVSALPIQHQDWMSGKEFKCKVNNKDLGAPIERTISKPKGSVRAPQVYVLPPPEKEMTKKQVSLTCLVKDFMPEDIYVEWTNNGKTELNYKNTEPVLKSDGSYFMYSKLTVEKKNWVERNSYSCSVVHEGLHNHHTTKSFSRTPGGGGSGGGSHHHHHH light: DIQMTQSPSSLSASVGDRVTITCRASQSIGRYLAWYQQKPGKAPKLLIYSASNLETGVPSRFSGSGSGTDFTLTISSLQPEDFATYYCQQYNSFPVTFGPGTKVDIKRADAAPTVSIFPPSSEQLTSGGASVVCFLNNFYPKDINVKWKIDGSERQNGVLNSWTDQDSKDSTYSMSSTLTLTKDEYERHNSYTCEATHKTSTSPIVKSFNRNEC,1790,50,–
AF4387 (other) heavy 1: APTSSSTKKTQLQLEHLLLDLQMILNGINNYKNPKLTDMLTFEFYMPKKATELKHLQCLERELKPLEEVLNLAQSKNFHLRPRDLISNINVIVLELKGSETTFMCEYADETATIVEFLNRWITFCQSIISTLTGGGGSGGGGSGGGGSGGGGSQVQLVQSGAEVKKPGASVKVSCKASGYTFTDYYMHWVRQAPGQGLEWMGIINPRAGYTSYALKFQGRVTMTRDTSTSTVYMELSSLRSEDTAVYYCTSGWDVWGQGTLVTVSSAKTTAPSVYPLAPVCGDTTGSSVTLGCLVKGYFPEPVTLTWNSGSLSSGVHTFPAVLQSDLYTLSSSVTVTSSTWPSQSITCNVAHPASSTKVDKKIEPRGPTIKPCPPCKCPAPNAAGGPSVFIFPPKIKDVLMISLSPIVTCVVVDVSEDDPDVQISWFVNNVEVHTAQTQTHREDYNSTLRVVSALPIQHQDWMSGKEFKCKVNNKDLGAPIERTISKPKGSVRAPQVYVLPPPEEEMTKKQVTLTCMVTDFMPEDIYVEWTNNGKTELNYKNTEPVLDSDGSYFMYSDLRVEKKNWVERNSYSCSVVHEGLHNHHTTESFSRTPGK heavy 2: QVQLVQSGAEVKKPGASVKVSCKASGYTFTDYYMHWVRQAPGQGLEWMGIINPRAGYTSYALKFQGRVTMTRDTSTSTVYMELSSLRSEDTAVYYCTSGWDVWGQGTLVTVSSAKTTAPSVYPLAPVCGDTTGSSVTLGCLVKGYFPEPVTLTWNSGSLSSGVHTFPAVLQSDLYTLSSSVTVTSSTWPSQSITCNVAHPASSTKVDKKIEPRGPTIKPCPPCKCPAPNAAGGPSVFIFPPKIKDVLMISLSPIVTCVVVDVSEDDPDVQISWFVNNVEVHTAQTQTHREDYNSTLRVVSALPIQHQDWMSGKEFKCKVNNKDLGAPIERTISKPKGSVRAPQVYVLPPPEKEMTKKQVSLTCLVKDFMPEDIYVEWTNNGKTELNYKNTEPVLKSDGSYFMYSKLTVEKKNWVERNSYSCSVVHEGLHNHHTTKSFSRTPGGGGSGGGSHHHHHH light: DIQMTQSPSSLSASVGDRVTITCRASQSISTWLAWYQQKPGKAPKLLIYAASSLDSGVPSRFSGSGSGTDFTLTISSLQPEDFATYYCQQSYSFPVTFGQGTKVEIKRADAAPTVSIFPPSSEQLTSGGASVVCFLNNFYPKDINVKWKIDGSERQNGVLNSWTDQDSKDSTYSMSSTLTLTKDEYERHNSYTCEATHKTSTSPIVKSFNRNEC,419,57,–
